Biological target: Pyruvate kinase M2 isoform (human (endogenous in A549)) (UniProt P14618)
Experiment: cross-linking; A549 cells washed with PBS pH 8.0 and treated with BS3 for 1 h at room temperature before lysis in loading buffer; dimers and tetramers by immunoblot; cells with eEF2K depletion, overexpression or A484954

Pyruvate kinase M2 isoform, P14618 1-531 (enzyme; other documents disagree on this pair), sequence (P14618 whole entry, canonical isoform): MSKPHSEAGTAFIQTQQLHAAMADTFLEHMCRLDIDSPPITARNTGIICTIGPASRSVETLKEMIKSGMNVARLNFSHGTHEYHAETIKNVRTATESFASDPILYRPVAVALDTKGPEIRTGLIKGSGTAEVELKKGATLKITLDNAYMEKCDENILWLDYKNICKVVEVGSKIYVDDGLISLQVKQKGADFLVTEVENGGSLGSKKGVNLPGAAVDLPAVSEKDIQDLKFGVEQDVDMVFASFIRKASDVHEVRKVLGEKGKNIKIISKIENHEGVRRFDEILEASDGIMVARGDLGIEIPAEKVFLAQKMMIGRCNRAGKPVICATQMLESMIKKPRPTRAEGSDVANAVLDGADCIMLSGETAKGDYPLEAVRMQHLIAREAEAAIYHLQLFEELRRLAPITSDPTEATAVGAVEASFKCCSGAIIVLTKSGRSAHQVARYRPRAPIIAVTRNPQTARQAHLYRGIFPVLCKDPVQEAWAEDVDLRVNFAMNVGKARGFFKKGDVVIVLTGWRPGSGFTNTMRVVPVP

A stoichiometry N of 2 was found for “Pyruvate kinase M2 isoform, P14618 1-531 (enzyme; other documents disagree on this pair)” in this work.

— article PMC7020344
